The numbers were not newly measured in paper PMC4788383, which cites them from elsewhere.

Read-outs that look alike come from different tables or passages of the source.

Series [1] deals with RNA polymerase II CTD peptide CTD (Homo sapiens) (UniProt P24928).
Series [2] has the same target. This is another data set of the same source.

With Pin1 (from UniProt Q13526), the equilibrium dissociation constant (Kd) (as a rule, the free concentration of one partner at which half of the binding sites on the other are occupied at equilibrium, for simple one-to-one binding) in series [1] was 30 µM; in series [2], 61 µM.
